Columns and labels:
[1] = biological target: NaK2CNG, mutant of NaK with the selectivity filter substituted to TVGDTPP, lacking the first 19 residues (UniProt Q81HW2); assay: crystal structure; MicroED (electron diffraction) of single microcrystals grown in Tris pH 8.0 and 60-80% MPD; protein in 0.2% DM with 150 mM NaCl (NaK) or 150 mM KCl (NaK2CNG); space group I4, two monomers in the asymmetric unit, tetramers generated by crystal symmetry
[2] = biological target: the molecule itself; assay: as above

Molecule “NaK2CNG, mutant of NaK with the selectivity filter substituted to TVGDTPP, lacking the first 19 residues (from UniProt Q81HW2 20-114) (natural protein)” has a stoichiometry N [1] of 4.

B1: NaK, non-selective ion channel, lacking the first 19 residues (natural protein, UniProt Q81HW2 20-114, looked up)
chain: KDKEFQVLFVLTILTLISGTIFYSTVEGLRPIDALYFSVVTLTTVGDGNFSPQTDFGKIFTILYIFIGIGLVFGFIHKLAVNVQLPSILSNRKKE
notes: NaK non-selective cation channel, construct lacking the first 19 residues; model for molecular replacement was PDB 3E89; Tetrameric channel; in space group I4 the tetramer is generated from one monomer by crystal symmetry, and the two monomers of the asymmetric unit give two tetramers; also called NaK channel
For B1, the “stoichiometry N” value [2] was 4.
